Results: article PMC2987445 (Cancer biology & therapy, 2010)

How the values were obtained:
[1] = test system: Akt signaling (pAkt, S6 protein, 4EBP-1) in LNCaP and T47D cells; experiment: Western blot of Akt pathway phosphorylation in LNCaP and T47D cells; conditions: 3 hrs
[2] = biological target: Akt1 (Mus musculus, UniProt P31750); experiment: Ex vivo IP-kinase assay of Akt1 in mouse tissues; conditions: exogenous insulin ip
[3] = Plasma insulin in nude mice; conditions: 30 min after injection; for plasma insulin levels increase: no AKTi
[4] = Blood glucose in nude mice; type: in vivo, mouse; conditions: 40 μg insulin ip in animals treated with 100 mpk AKTi
[5] = biological target: Akt3 (Mus musculus, UniProt Q9WUA6); experiment: Ex vivo IP-kinase assay of Akt3 in mouse tissues; conditions: exogenous insulin ip (1 or 5 μg)
Sequence of Akt3 (Q9WUA6 whole entry): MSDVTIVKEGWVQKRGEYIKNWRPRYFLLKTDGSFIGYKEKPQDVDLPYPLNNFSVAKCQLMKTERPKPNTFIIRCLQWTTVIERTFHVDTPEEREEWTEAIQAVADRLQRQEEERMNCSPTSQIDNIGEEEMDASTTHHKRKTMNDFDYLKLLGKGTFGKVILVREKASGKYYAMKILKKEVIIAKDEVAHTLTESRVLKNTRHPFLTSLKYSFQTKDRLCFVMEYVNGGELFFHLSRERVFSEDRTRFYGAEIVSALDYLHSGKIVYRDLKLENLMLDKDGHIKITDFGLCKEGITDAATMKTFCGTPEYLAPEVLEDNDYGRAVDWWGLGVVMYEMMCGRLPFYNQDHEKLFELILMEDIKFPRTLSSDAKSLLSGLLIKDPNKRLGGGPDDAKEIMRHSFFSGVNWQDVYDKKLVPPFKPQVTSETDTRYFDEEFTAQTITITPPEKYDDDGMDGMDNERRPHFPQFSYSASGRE

Sequence of Akt1 (P31750 whole entry): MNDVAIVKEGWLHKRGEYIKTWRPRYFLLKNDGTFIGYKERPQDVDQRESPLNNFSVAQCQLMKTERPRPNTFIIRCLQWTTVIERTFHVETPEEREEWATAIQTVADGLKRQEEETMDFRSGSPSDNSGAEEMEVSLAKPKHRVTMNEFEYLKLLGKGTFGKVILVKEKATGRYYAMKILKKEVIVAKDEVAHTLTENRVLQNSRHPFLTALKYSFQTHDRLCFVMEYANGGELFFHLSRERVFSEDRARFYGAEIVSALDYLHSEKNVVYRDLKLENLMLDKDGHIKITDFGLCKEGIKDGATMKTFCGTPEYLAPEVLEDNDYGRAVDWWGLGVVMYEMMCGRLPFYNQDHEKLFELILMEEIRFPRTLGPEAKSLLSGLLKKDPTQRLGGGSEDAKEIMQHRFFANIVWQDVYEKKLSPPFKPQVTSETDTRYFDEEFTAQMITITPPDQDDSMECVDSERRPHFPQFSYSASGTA

Compound	blocking phosphorylation of S6 protein and 4EBP-1 [1]	hyper-phosphorylation of Akt [1]	induction of Akt1 activity in liver [2]	plasma insulin levels increase ([3]; 1 μg insulin ip)	plasma insulin levels increase ([3]; 5 μg insulin ip)	Insulin, plasma ([3]; insulin 5.0 μg per mouse ip)	effect on glucose levels [4]	maximal increase of Akt3 activity in lung [5]
Cc1n[nH]c2ccc(-c3cncc(OC[C@@H](N)Cc4c[nH]c5ccccc45)c3)cc12 [A443654]	equally effective at blocking phosphorylation	feed-back hyper-phosphorylation	–	–	–	–	–	–
Insulin: Recombinant insulin obtained from Invitrogen, injected intraperitoneally	–	–	~10 fold	about 20 fold	~100 fold	77 ± 21 ng/mL	only a minor effect on glucose levels	40%
